Measured values: PMC6336319, “EBNA3C facilitates RASSF1A downregulation through ubiquitin-mediated degradation and promoter hypermethylation to drive B-cell proliferation” (PLoS Pathogens, 2019)

Biological target: T1, Flag-tagged EBNA3C 366-620 (Epstein-Barr virus, UniProt P03204 366-620)
T1 construct: also called pA3F-EBNA3C 366–620; EBNA3C 366-620aa; source: Saos-2, transfected, in lysate
T1 sequence: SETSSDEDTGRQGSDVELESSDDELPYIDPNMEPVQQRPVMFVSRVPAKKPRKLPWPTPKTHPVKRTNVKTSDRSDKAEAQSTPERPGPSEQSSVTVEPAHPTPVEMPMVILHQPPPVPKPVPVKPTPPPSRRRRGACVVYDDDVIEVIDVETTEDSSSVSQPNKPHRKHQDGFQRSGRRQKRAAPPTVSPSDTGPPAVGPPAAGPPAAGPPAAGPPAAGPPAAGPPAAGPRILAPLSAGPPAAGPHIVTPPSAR
Test: co-IP; Saos-2 cells co-transfected, lysed 48 h later in RIPA buffer (1% NP-40, 10 mM Tris pH 8.0, 2 mM EDTA, 150 mM NaCl); immunoprecipitation with 1 ug anti-Flag antibody, overnight at 4 °C; western blot with anti-Flag and anti-Myc
Settings: partners not purified

B1: Myc-tagged full-length RASSF1A (Ras association domain family isoform 1A) (natural protein, human, UniProt Q9NS23-2 1-340, looked up)
chain: MSGEPELIELRELAPAGRAGKGRTRLERANALRIARGTACNPTRQLVPGRGHRFQPAGPATHTWCDLCGDFIWGVVRKGLQCAHCKFTCHYRCRALVCLDCCGPRDLGWEPAVERDTNVDEPVEWETPDLSQAEIEQKIKEYNAQINSNLFMSLNKDGSYTGFIKVQLKLVRPVSVPSSKKPPSLQDARRGPGRGTSVRRRTSFYLPKDAVKHLHVLSRTRAREVIEALLRKFLVVDDPRKFALFERAERHGQVYLRKLLDDEQPLRLRLLAGPSDKALSFVLKENDSGEVNWDAFSMPELHNFLRILQREEEEHLRQILQKYSYCRQKIQEALHACPLG
notes: RASSF1A (Ras association domain family isoform 1A), full length, amplified from total RNA by RT-PCR and cloned into pA3M; also called Myc-RASSF1A; pA3M-RASSF1A; source: Saos-2, transfected, in lysate
signal relative to EBNA3C residues 1-365: ~50%
